From publication PMC4770092, “Subnanometre enzyme mechanics probed by single-molecule force spectroscopy” (Nature Communications, 2016) come the findings set out here.

Assay in all cases: coupled spectrophotometric assay
Common to all, as to assay type: biochemical, Aquifex aeolicus

Substrate in data set [1]: Nc1ncnc2c1ncn2[C@@H]1O[C@H](COP(=O)(O)OP(=O)(O)OP(=O)(O)O)[C@@H](O)[C@H]1O
Substrate in data set [2]: Nc1ncnc2c1ncn2[C@@H]1O[C@H](COP(=O)(O)O)[C@@H](O)[C@H]1O
Substrate in data set [3]: Nc1ncnc2c1ncn2[C@@H]1O[C@H](COP(=O)(O)OP(=O)(O)O)[C@@H](O)[C@H]1O
The conditions noted are these: Mg-ADP/ADP.

B1: AdK 42-144 (Aquifex aeolicus VF5; INS144C/INS42C) (protein)
chain: MILVFLGPPGAGKGTQAKRLAKEKGFVHISTGDILREAVQKGCTPLGKKAKEYMERGELVPDDLIIALIEEVFPKHGNVIFDGFPRTVKQAEALDEMLEKKGLKVDHVLLFEVPDEVVIERLSGRRINPETGEVYHVKYNPPPPGCVKVIQREDDKPEVIKKRLEVYREQTAPLIEYYKKKGILRIIDASKPVEEVYRQVLEVIGDGN
notes: full length, Cys inserted between 42/43 and 144/145; N-terminal spacer …, C-terminal spacer and His6 kept; synthetic gene in pET11a, E. coli BL21(DE3); DNA handles on Cys in trap assay
On to B1, for which the Michaelis constant (Km) (as a rule, the concentration of substrate that gives half-maximal velocity) in data set [1] is 41 ± 11 µM; in data set [2] it was 10 µM; in data set [3] it was 360 ± 80 µM.
